Experimental data taken from US20140120095A1 (Boehringer Ingelheim, published 2014).
Where a chain is given by its changes, count along the chain named.

B1: DLLBII015 (VHH, not shown: small tags and cut ends)
VHH: EVQLVESGGGLVQPGGSLRLSCAASGFTIGSYDMSWVRRSPGKGPEWVSAINSGGGSTYYADYVKGRFTISRDNAKNTLYLQMNSLKPEDTAVYYCAADRYIWARQGEYWGAYAYDYWGQGTQVTVSS
B2: DLLBII136C07 (VHH, not shown: small tags and cut ends)
VHH: B1 VHH with I29F, A50S, A114E
B3: DLLBII133A09 (VHH, not shown: small tags and cut ends)
VHH: B1 VHH with I29F
B4: DLLBII133G05 (VHH, not shown: small tags and cut ends)
VHH: B1 VHH with I29F, A61T
B5: DLLBII56A09 (VHH)
VHH: EVQLVESGGGLVQPGGSLRLSCAASGFTFDDYAIGWFRQAPGKEPEGISCISSSGGITYYADSVKGRFTTSRDNAKNTVYLQMNSLKPEDTAVYYCATPGIAACRGIHYTGQGTQVTVSS
notes: also called 56A9; DLLBII56A9
B6: DLLBII115A05 (VHH)
VHH: B1 VHH with I29F, A50S, Y63F, W103R, E108D, A114E
notes: also called 115A5; DLLBII115A5
B7: DLLBII101G08 (VHH)
VHH: EVQLVESGGGLVQAGGSLRLSCAASGRTFSSYAMAWFRQAPGKEREFVAAIRWSGGTAYYADSVQGRFTISRDNAKNTVYLQMNSLKPEDTAVYYCANRAADTRLGPYEYDYWGQGTQVTVSS
notes: also called 101G8; DLLBII101G8
B8: DLLBII101G08 (VHH, not shown: small tags and cut ends)
VHH: B7 VHH
notes: parent VHH; also called 101G08 (wt); 101G8
B9: DLLBII129B05 (VHH, not shown: small tags and cut ends)
VHH: B7 VHH with F37Y, F47Y, A101P, G106A, Y112H
B10: DLLBII129E11 (VHH, not shown: small tags and cut ends)
VHH: B7 VHH with F37Y, F47Y, A101P, G106R, E109L
B11: DLLBII129D08 (VHH, not shown: small tags and cut ends)
VHH: B7 VHH with F37Y, F47Y, A101P, G106E, E109L

Biological target: T1, recombinant mouse DLL4 (C-terminally His-tagged extracellular domain, R&D Systems) (mouse, UniProt Q9JI71 27-532)
T1 construct: extracellular domain; also called rmDLL4; mDLL4
Assay: binding ELISA on coated recombinant mouse DLL4 (Example 5.8, Example 7), OD 450 nm

T1 sequence (Q9JI71 27-532): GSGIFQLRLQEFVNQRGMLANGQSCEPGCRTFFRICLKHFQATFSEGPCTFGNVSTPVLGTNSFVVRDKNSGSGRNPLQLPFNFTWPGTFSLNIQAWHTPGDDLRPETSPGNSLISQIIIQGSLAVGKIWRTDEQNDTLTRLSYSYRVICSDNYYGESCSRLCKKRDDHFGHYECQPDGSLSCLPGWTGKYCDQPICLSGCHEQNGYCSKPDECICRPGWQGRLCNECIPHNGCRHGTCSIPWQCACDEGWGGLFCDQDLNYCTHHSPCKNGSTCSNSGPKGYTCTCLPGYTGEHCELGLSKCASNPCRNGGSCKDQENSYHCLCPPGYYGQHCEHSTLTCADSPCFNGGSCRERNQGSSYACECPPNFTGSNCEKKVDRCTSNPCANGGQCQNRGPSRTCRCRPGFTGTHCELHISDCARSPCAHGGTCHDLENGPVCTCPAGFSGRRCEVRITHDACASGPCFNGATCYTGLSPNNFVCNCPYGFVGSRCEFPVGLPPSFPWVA

EC50 (read off the curve)	Binder
~1 nM	B1
~1 nM	B2
~1 nM	B3
~0.4 nM	B4

Biological target: T2, mouse DLL4 overexpressed on cells (mouse, UniProt Q9JI71 27-686)
T2 construct: whole, on cells; also called CHO-mDLL4; CHO-mDII4
Assay: competitive FMAT, hNotch1-Fc on CHO-mDLL4

T2 sequence (Q9JI71 27-686): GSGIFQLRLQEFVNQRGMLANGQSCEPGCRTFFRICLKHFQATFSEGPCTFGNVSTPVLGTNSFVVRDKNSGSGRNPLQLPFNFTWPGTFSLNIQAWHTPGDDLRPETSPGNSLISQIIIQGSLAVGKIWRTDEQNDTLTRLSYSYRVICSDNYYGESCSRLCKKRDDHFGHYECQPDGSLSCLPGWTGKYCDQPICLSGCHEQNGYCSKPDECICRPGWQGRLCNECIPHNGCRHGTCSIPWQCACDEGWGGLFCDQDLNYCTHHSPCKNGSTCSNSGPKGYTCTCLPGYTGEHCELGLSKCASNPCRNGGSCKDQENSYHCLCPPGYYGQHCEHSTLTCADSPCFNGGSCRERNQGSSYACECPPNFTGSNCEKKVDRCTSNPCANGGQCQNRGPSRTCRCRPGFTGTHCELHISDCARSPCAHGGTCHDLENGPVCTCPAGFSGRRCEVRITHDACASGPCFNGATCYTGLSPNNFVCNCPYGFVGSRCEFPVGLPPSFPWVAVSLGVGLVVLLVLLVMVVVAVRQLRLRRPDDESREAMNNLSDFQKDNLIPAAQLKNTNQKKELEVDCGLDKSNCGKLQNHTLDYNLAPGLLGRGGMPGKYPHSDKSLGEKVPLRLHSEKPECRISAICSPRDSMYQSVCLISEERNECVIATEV

IC50	Binder
15 nM	B5
43 nM	B6
92.1 nM	B7

Biological target: T3, recombinant mouse DLL4 (mouse, UniProt Q9JI71 27-532)
T3 construct: extracellular domain; also called rmDLL4; mDLL4
Assay: binding ELISA, coated rmDLL4
Experimental: (§1) In order to determine cross-reactivity to mouse DII4 a binding ELISA is performed. […] Wells are blocked with a casein solution (1% in PBS). VHHs are applied as dilution series and binding is detected using a mouse anti-myc (Roche) and an anti-mouse-AP conjugate (Sigma, St Louis, Mo., USA) (FIG. 7 A-H). As reference, binding to human DII4 is measured.

T3 sequence (Q9JI71 27-532): as the sequence (Q9JI71 27-532) above

EC50	Binder
6.3 nM	B5
33.4 nM	B6
53.9 nM	B7

Biological target: T4, human DLL4 overexpressed on cells (human, UniProt Q9NR61 27-685)
T4 construct: full length human DLL4 on CHO or HEK293 cells; also called CHO-hDLL4; CHO-hDII4
Assay: FACS titration on HEK293-hDLL4 cells, MCF
How it was run: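 HEK293 cells overexpressing DLL4 (transient or stable) were incubated with VHH titrations for 30 min on ice. After washing, binding was detected with anti-c-myc-Alexa647 by flow cytometry, and the mean MCF was used to calculate EC50.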

EC50 (read off the curve)	Binder
~4 nM	B5
~20 nM	B6
~30 nM	B7

Biological target: T5, recombinant human DLL4 (human, UniProt Q9NR61 25-522)
Assay: cell-based or functional assay

IC50 (nM) (experiment 1), DLL4 proliferation assay (HUVEC)	IC50 (nM) (experiment 2), DLL4 proliferation assay (HUVEC)	Binder
11 nM	6.8 nM	B5
10000 nM		B6
401 nM	112 nM	B7

Biological target: T6, human Jagged-1 (human, UniProt P78504 34-1067, limits assumed)
T6 construct: also called hJagged-1; hJAG1
Assay: binding ELISA on coated recombinant human Jagged-1, OD 405 nm
How it was run: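 Plates coated overnight at 4° C with 1 μg/mL ligand, blocked with 1% casein in PBS. VHH dilution series applied; bound VHH detected via mouse anti-myc then anti-mouse-AP conjugate.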

binding result	Binder
no binding (tested: 5e-7 M)	B5
no binding (tested: 5e-7 M)	B6
no binding (tested: 5e-7 M)	B7

Biological target: T5, recombinant human DLL4
Assay: binding ELISA, coated rhDLL4
Experimental: as §1

EC50	Binder
3.6 nM	B5
5 nM	B6
8.9 nM	B7

Biological target: T7, recombinant human DLL4 (C-terminally His-tagged extracellular domain, R&D Systems) (human, UniProt Q9NR61 25-522, biotinylated in the competition ELISA)
T7 construct: also called rhDLL4; hDLL4
Assay: binding ELISA on recombinant human DLL4, OD 450 nm

EC50 (read off the curve)	Binder
~4000 pM	B8
~700 pM	B9
~700 pM	B10
~700 pM	B11

Biological target: T1, recombinant mouse DLL4 (C-terminally …)
Assay: binding ELISA on coated recombinant mouse DLL4 (Example 5.8, Example 7), OD 450 nm
Remark: another data set of the same source

EC50 (read off the curve)	Binder
~800 pM	B9
~800 pM	B10
~800 pM	B11

Biological target: T7, recombinant human DLL4 (C-terminally …)
Assay: ProteOn off-rate screen, periplasmic extract, coated human DLL4
Experimental: In a first cycle, amino acid substitutions are introduced randomly in both framework (FW) and complementary determining regions (CDR) using the error-prone PCR method. […] After a polish step, PCR products are inserted via unique restriction sites into a vector designed to facilitate phage display of the VHH library. Consecutive rounds of in-solution selections are performed using decreasing concentrations of biotinylated recombinant human DLL4 (biot-rhDLL4) and trypsin elutions. Affinity-driven selections in a third round using cold rhDLL4 (at least 100× excess over biot-rhDLL4) are also performed. No selections on murine DLL4 are included as (conservation of) cross-reactivity is assessed at the screening level. Individual mutants are produced as recombinant protein using an expression vector derived from pUC119, which contains the LacZ promoter, a resistance gene for ampicillin, a multiple cloning site and an ompA leader sequence (pAX50). E. coliTG1 cells are transformed with the expression vector library and plated on agar plates (LB+Amp+2% glucose). Single colonies are picked from the agar plates and grown in 1 mL 96-deep-well plates. VHH expression is induced by adding IPTG (1 mM). Periplasmic extracts (in a volume of ˜80 uL) are prepared according to standard methods and screened for binding to recombinant human and mouse DII4 in a ProteOn (BioRad, Hercules, Calif., USA) off-rate assay. In brief, a GLC ProteOn Sensor chip is coated with recombinant human DII4 on the “ligand channels” L2 and L4 (with L1/L3 as reference channel), while “ligand channels” […] is coated with mouse DII4. Periplasmic extract of affinity-matured clones is diluted 1/10 and injected across the “analyte channels” A1-A6. An average off-rate is calculated of the wild type clones present in the plate and served as a reference to calculate off-rate improvements.

fold (off-rate vs DLLBII101G08)	koff	Binder
1 fold	0.0022 s⁻¹	B8
24 fold	9.3e-05 s⁻¹	B9
28 fold	8e-05 s⁻¹	B10
38 fold	5.9e-05 s⁻¹	B11

Biological target: T4, human DLL4 overexpressed on cells
Assay: competitive FMAT, hNotch1-Fc on CHO-hDLL4

IC50	Binder
10.6 nM	B5
22 nM	B6
24.6 nM	B7

Biological target: T5, recombinant human DLL4
Assay: Biacore off-rate, periplasmic extract

koff	Binder
0.0011 s⁻¹	B5
0.0031 s⁻¹	B6
0.0021 s⁻¹	B7
